Experimental data: patent publication US20150344570A1 (published 2015)
Positions count from the first letter of the chain named. Names and notes keep the numbering of the source.

T1: FcgRIIa H (FcγRIIa type H) extracellular domain with C-terminal His tag (human, UniProt P12318 34-217)
T1 construct: extracellular domain; also called FcγRIIa H; not shown: His tag attached to the C terminus
T1 sequence (looked up): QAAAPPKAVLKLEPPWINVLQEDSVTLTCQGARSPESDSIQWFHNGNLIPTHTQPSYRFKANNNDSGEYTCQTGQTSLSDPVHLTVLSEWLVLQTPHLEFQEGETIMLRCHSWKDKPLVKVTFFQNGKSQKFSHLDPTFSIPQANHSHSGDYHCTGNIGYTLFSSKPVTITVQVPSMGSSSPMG

T2: FcgRIIa R (FcγRIIa type R) extracellular domain with C-terminal His tag (human, UniProt P12318 34-217)
T2 construct: extracellular domain; also called FcγRIIa R; not shown: His tag attached to the C terminus
T2 sequence (looked up): T1 sequence (looked up) with H134R

T3: FcgRIIb (FcγRIIb) extracellular domain with C-terminal His tag (human, UniProt P31994 43-217)
T3 construct: extracellular domain; not shown: His tag attached to the C terminus
T3 sequence (looked up): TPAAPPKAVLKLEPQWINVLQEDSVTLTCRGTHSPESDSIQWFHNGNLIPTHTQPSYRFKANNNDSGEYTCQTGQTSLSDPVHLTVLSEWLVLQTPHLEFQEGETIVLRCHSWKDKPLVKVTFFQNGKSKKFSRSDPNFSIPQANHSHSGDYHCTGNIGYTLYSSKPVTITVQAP

T4: FcγRIIb extracellular domain with C-terminal His tag (human, UniProt P31994 43-217)
T4 construct: extracellular domain; Soluble receptor expressed in FreeStyle293 cells, used as analyte in Biacore; also called FcgRIIb; 2b; not shown: His tag attached to the C terminus
T4 sequence (looked up): T3 sequence (looked up)

B1: H240-Kn061/H240-Hl071/L73-k0 variant with Y235Q in H240-Kn061 (antibody, human IgG1, kappa)
heavy 1: QDQLVQSGAEVKKPGASVKVSCKASGFNIKDTYIQWVRQAPGQGLEWMGRIDPLRKQTKYREKFEGRVTITADTSTNTAYMELSSLRSEDTAVYYCVRSGREFDYWGQGTLVTVSSASTKGPSVFPLAPSSKSTSGGTAALGCLVKDYFPEPVTVSWNSGALTSGVHTFPAVLQSSGLYSLSSVVTVPSSSLGTQTYICNVNHKPSNTKVDKKVEPKSCDKTHTCPPCPAPEYQWGPSVFLFPPKPKDTLMISRTPEVTCVVVDVSDEDPEVKFNWYVDGVEVHNAKTKPREEQYNATYRVVSVLTVLHQDWLNGKEYKCKVSNKALPAPIEKTISKAKGQPREPQVCTLPPSRDELTKNQVSLWCLVKGFYPSDIAVEWESNGQPENNYKTTPPVLDSDGSFFLYSKLTVDKSRWQQGNVFSCSVMHEALHNHYTQKSLSLSP
heavy 2: QDQLVQSGAEVKKPGASVKVSCKASGFNIKDTYIQWVRQAPGQGLEWMGRIDPLRKQTKYREKFEGRVTITADTSTNTAYMELSSLRSEDTAVYYCVRSGREFDYWGQGTLVTVSSASTKGPSVFPLAPSSKSTSGGTAALGCLVKDYFPEPVTVSWNSGALTSGVHTFPAVLQSSGLYSLSSVVTVPSSSLGTQTYICNVNHKPSNTKVDKKVEPKSCDKTHTCPPCPAPELLGGPSVFLFPPKPKDTLMISRTPEVTCVVVDVSHEDPEVKFNWYVDGVEVHNAKTKPREEQYNSTYRVVSVLTVLHQDWLNGKEYKCKVSNDALPMPIEETISKAKGQPREPQVYTLPPSRCELTKNQVSLSCAVKGFYPSDIAVEWESNGQPENNYKTTPPVLDSDGSFFLVSKLTVDKSRWQQGNVFSCSVMHEALHNHYTQKSLSLSP
light: DIQMTQSPSSLSASVGDRVTITCRASQDIHKYIAWYQQKPGQAPRLLIQYTSTLQPGVPSRFSGSGSGTDYTFTISSLQPEDIATYYCLQYEQLRTFGGGTKVEIKRTVAAPSVFIFPPSDEQLKSGTASVVCLLNNFYPREAKVQWKVDNALQSGNSQESVTEQDSKDSTYSLSSTLTLSKADYEKHKVYACEVTHQGLSSPVTKSFNRGEC
notes: anti-epiregulin heterodimerized IgG1; also called H240-Kn061 Y235Q
B2: H240-Kn061/H240-Hl071/L73-k0 variant with Y235V in H240-Kn061 (antibody, human IgG1, kappa)
heavy 1: B1 heavy 1 with Q234V
heavy 2: B1 heavy 2
light: B1 light
notes: anti-epiregulin heterodimerized IgG1; also called H240-Kn061 Y235V
B3: GpH7-A5/GpH7-B3 variant S267_08L/GpL16-k0 (antibody, human IgG1, kappa)
heavy 1: not shown
heavy 2: not shown
light: DIVMTQSPLSLPVTPGEPASISCQASESLVHSNRNTYLHWYLQKPGQSPQLLIYKVSNRFSGVPDRFSGSGSGTDFTLKISRVEAEDVGVYYCSQNTHVPPTFGQGTKVEIERTVAAPSVFIFPPSDEQLKSGTASVVCLLNNFYPREAKVQWKVDNALQSGNSQESVTEQDSKDSTYSLSSTLTLSKADYEKHKVYACEVTHQGLSSPVTKSFNRGEC
notes: Heterodimerized antibody (He Ab) with the mutation in only one H chain; also called He Ab S267L
B4: GpH7-A5/GpH7-B3 variant S267_09D/GpL16-k0 (antibody, human IgG1, kappa)
heavy 1: not shown
heavy 2: not shown
light: B3 light
notes: Heterodimerized antibody (He Ab) with the mutation in only one H chain; also called He Ab S267D
B5: GpH7-A5/GpH7-B3 variant H268_01G/GpL16-k0 (antibody, human IgG1, kappa)
heavy 1: not shown
heavy 2: not shown
light: B3 light
notes: Heterodimerized antibody (He Ab) with the mutation in only one H chain; also called He Ab H268G
B6: GpH7-A5/GpH7-B3 variant H268_05P/GpL16-k0 (antibody, human IgG1, kappa)
heavy 1: not shown
heavy 2: not shown
light: B3 light
notes: Heterodimerized antibody (He Ab) with the mutation in only one H chain; also called He Ab H268P
B7: GpH7-A5/GpH7-B3 variant P271_01G/GpL16-k0 (antibody, human IgG1, kappa)
heavy 1: not shown
heavy 2: not shown
light: B3 light
notes: Heterodimerized antibody (He Ab) with the mutation in only one H chain; also called He Ab P271G

Biological target: T1, FcgRIIa H (FcγRIIa type H) …
Assay: SPR (Biacore); KD of H240-Kn061/H240-Hl071/L73-k0 divided by KD of the variant
Method: (§1) The antibodies were assessed for the binding to each FcgR. […] The resultant value was defined as relative KD, and used as an assessment indicator.
(§2) Analysis of interaction between objective antibody and the FcγR was carried out using Biacore T100 (GE Healthcare), Biacore T200, Biacore A100, and Biacore 4000. HBS-EP+ (GE Healthcare) was used as the running buffer, and the measurement temperature was set to 25° C. Chips produced by immobilizing the antigen peptide by the amine coupling method to a Series S sensor Chip CM5 (GE Healthcare), chips produced by allowing preliminarily biotinylated antigen peptides to interact with and immobilize onto a Series S Sensor Chip SA (certified) (GE Healthcare), chips produced by immobilizing Protein L (ACTIGEN, BioVision) to Series S Sencor Chip CM5 (GE Healthcare), or chips produced by immobilizing Protein A/G (Thermo Scientific) to Series S Sencor Chip CM5 (GE Healthcare) were used. Antibodies of interest were captured onto these chips, and allowed to interact to each FcγR diluted with running buffer.

relative KD | Binder
0.4 ratio | B1
0.4 ratio | B2

Biological target: T2, FcgRIIa R (FcγRIIa type R) …
Assay: as above
Method: as §1, §2

relative KD | Binder
0.8 ratio | B1
0.5 ratio | B2

Biological target: T5, FcgRIIIa F (FcγRIIIa type F) extracellular domain with C-terminal His tag (human, UniProt P08637 17-208)
T5 construct: extracellular domain; also called FcγRIIIa F; 3aF; not shown: His tag attached to the C terminus
T5 sequence (P08637 17-208): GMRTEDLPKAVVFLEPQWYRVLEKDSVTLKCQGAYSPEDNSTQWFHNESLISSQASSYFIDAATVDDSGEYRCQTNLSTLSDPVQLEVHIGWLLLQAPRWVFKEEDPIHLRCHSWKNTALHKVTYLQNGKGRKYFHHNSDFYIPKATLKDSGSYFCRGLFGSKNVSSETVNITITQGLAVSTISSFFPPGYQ
Assay: as above
Method: as §1, §2

relative KD | Binder
1 ratio | B1
1.2 ratio | B2

Biological target: T6, FcgRIIIa V (FcγRIIIa type V) extracellular domain with C-terminal His tag (human, UniProt P08637 17-208)
T6 construct: extracellular domain; also called FcγRIIIa V; not shown: His tag attached to the C terminus
T6 sequence (P08637 17-208 F176V limits assumed): as the sequence (P08637 17-208) above, with F160V counted along it
Assay: as above
Method: as §1, §2

relative KD | Binder
1.3 ratio | B1
1.3 ratio | B2

Biological target: T3, FcgRIIb (FcγRIIb) extracellular domain …
Assay: as above
Method: as §1, §2

relative KD | Binder
0.1 ratio | B1
0.2 ratio | B2

Biological target: T7, FcγRIIIa extracellular domain with C-terminal His tag (human, UniProt P08637 17-208)
T7 construct: extracellular domain; also called FcgRIIIa; 3a; not shown: His tag attached to the C terminus
T7 sequence (P08637 17-208): as the sequence (P08637 17-208) above
Assay: SPR (Biacore); He/Con_3a (FcγRIIIa) divided by He/Con_2b (FcγRIIb)

He_3a/2b (IIIa/IIb) | Binder
0.18 ratio | B3
0.58 ratio | B4
0.67 ratio | B5
0.66 ratio | B6
0.59 ratio | B7

Biological target: T5, FcgRIIIa F (FcγRIIIa type F) …
Assay: SPR (Biacore); KD of H240-Kn061/H240-Hl071/L73-k0 divided by KD of the variant
Remark: another data set of the same source

relative KD | Binder
1 ratio | B1
1.2 ratio | B2

Biological target: T6, FcgRIIIa V (FcγRIIIa type V) …
Assay: as above
Remark: another data set of the same source

relative KD | Binder
1.3 ratio | B1
1.3 ratio | B2

Biological target: T3, FcgRIIb (FcγRIIb) extracellular domain …
Assay: as above
Remark: another data set of the same source

relative KD | Binder
0.1 ratio | B1
0.2 ratio | B2

Biological target: T7, FcγRIIIa extracellular domain with …
Assay: SPR (Biacore T100), antibody captured on antigen peptide chip, FcγR as analyte
Method: (§3) Analysis of interaction between objective antibody and the FcγR was carried out using Biacore T100 (GE Healthcare). HBS-EP+ (GE Healthcare) was used as the running buffer, and the measurement temperature was set to 25° C. Chips produced by immobilizing the antigen peptide by the amine coupling method to a Series S Sencor Chip CM5 (GE Healthcare), or alternatively, chips produced by allowing preliminarily biotinylated antigen peptides to interact with and immobilize onto a Series S Sensor Chip SA (certified) (GE Healthcare) were used. Antibodies of interest were captured onto an antigen peptide-immobilized chip, and allowed to interact to each FcγR diluted with running buffer. To regenerate and repeatedly use the chip, the antibodies captured on the chip were washed off by reacting 10 mM glycine-HCl, pH 1.5.

He/Con_3a | Binder
19.5 relative binding, GpH7-A5/GpH7-B3/GpL16-k0 = 100 | B3
181 relative binding, GpH7-A5/GpH7-B3/GpL16-k0 = 100 | B4
96.7 relative binding, GpH7-A5/GpH7-B3/GpL16-k0 = 100 | B5
76.4 relative binding, GpH7-A5/GpH7-B3/GpL16-k0 = 100 | B6
113 relative binding, GpH7-A5/GpH7-B3/GpL16-k0 = 100 | B7

Biological target: T4, FcγRIIb extracellular domain with …
Assay: as above
Method: as §3

He/Con_2b | Binder
109 relative binding, GpH7-A5/GpH7-B3/GpL16-k0 = 100 | B3
310 relative binding, GpH7-A5/GpH7-B3/GpL16-k0 = 100 | B4
144 relative binding, GpH7-A5/GpH7-B3/GpL16-k0 = 100 | B5
116 relative binding, GpH7-A5/GpH7-B3/GpL16-k0 = 100 | B6
193 relative binding, GpH7-A5/GpH7-B3/GpL16-k0 = 100 | B7
